Measured values reported in patent CN111110862A.

Legend:
[1] = target: 人CLDN18.2(hCLDN18.2) (human) (UniProt P56856); experiment: cell ELISA on fixed hCLDN18.2+cell
[2] = target: 人CLDN18.2(hCLDN18.2) (human) (UniProt P56856); experiment: cell ELISA on fixed hCLDN18.2+cell, plateau reading
[3] = target: 人CLDN18.2(hCLDN18.2) (human) (UniProt P56856); experiment: cell ELISA, hybridoma supernatant on hCLDN18.2+cell

Row | Binder | EC50 [1] | Emax higher than Ref [1] | fold better binding (EC50) than Ref [1] | Emax [2] | ELISA读值 [3]
1 | anti-hCLDN18.2鼠源抗体mab5b (antibody, human IgG1, kappa, V domains shown) VH: QVQLQQSGAELIGPGTSVKVSCKASGYAFSNYLIEWVKQRPEQGLEWIGLINPGSGGTNYNEKFKGKATLTADKSSSTAYMQLSSLTSDDSAVYFCARVYYGNSFAYWGQGTLVTVSA VL: DIVMTQSPSSLTVTAGEKVTMSCKSSQSLLNSGNQKNYLTWYQQKPGQPPKLLIYWASTRESGVPDRFTGSGSGTHFTLTISSVQAEDLAVYYCQNDYFYPFTFGSGTKLEKKR | 0.115 nM | > 36% | > 1 fold | 1.92 | 
2 | 杂交瘤单克隆细胞株C13C1F1D3G6所分泌的抗体 (antibody, V domains shown) VH: QVQLQQSGAELIGPGTSVKVSCKASGYAFSNYLIEWVKQRPEQGLEWIGLINPGSGGTNYNEKFKGKATLTADKSSSTAYMQLSSLTSDDSAVYFCARVYYGNSFAYWGQGTLVTVSA VL: DIVMTQSPSSLTVTAGEKVTMSCKSSQSLLNSGNQKNYLTWYQQKPGQPPKLLIYWASTRESGVPDRFTGSGSGTHFTLTISSVQAEDLAVYYCQNDYFYPFTFGSGTKLEKK |  |  |  |  | 0.889
